From US10925971B2, “Methods of treating PRLR positive breast cancer” (Regeneron Pharmaceuticals, Inc., priority 2016, dated 2021)

T1: mouse PRLR on HEK293/mPRLR cells (Mus musculus, UniProt Q08501)
T1 construct: HA; expressed in transfected cells; host or cells: HEK293
T1 sequence (Q08501 20-608): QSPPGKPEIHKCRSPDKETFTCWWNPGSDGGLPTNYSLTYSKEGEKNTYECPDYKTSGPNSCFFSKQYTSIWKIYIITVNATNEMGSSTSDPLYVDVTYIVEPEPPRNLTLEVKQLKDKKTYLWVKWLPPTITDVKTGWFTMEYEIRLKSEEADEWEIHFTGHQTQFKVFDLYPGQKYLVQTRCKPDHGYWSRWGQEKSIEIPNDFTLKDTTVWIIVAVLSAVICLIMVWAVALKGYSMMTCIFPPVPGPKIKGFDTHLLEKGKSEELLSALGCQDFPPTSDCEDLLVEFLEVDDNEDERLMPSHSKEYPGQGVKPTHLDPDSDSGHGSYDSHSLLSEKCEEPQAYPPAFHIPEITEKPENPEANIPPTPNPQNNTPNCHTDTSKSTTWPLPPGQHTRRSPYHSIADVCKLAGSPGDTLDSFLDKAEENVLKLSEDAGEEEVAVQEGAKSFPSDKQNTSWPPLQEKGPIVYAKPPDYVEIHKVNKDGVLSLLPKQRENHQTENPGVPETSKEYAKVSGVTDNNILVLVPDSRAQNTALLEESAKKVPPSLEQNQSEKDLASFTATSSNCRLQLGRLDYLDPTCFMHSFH

T2: human PRLR on HEK293/hPRLR cells (Homo sapiens, UniProt P16471)
T2 construct: HA; expressed in transfected cells; host or cells: HEK293
T2 sequence (P16471 25-622): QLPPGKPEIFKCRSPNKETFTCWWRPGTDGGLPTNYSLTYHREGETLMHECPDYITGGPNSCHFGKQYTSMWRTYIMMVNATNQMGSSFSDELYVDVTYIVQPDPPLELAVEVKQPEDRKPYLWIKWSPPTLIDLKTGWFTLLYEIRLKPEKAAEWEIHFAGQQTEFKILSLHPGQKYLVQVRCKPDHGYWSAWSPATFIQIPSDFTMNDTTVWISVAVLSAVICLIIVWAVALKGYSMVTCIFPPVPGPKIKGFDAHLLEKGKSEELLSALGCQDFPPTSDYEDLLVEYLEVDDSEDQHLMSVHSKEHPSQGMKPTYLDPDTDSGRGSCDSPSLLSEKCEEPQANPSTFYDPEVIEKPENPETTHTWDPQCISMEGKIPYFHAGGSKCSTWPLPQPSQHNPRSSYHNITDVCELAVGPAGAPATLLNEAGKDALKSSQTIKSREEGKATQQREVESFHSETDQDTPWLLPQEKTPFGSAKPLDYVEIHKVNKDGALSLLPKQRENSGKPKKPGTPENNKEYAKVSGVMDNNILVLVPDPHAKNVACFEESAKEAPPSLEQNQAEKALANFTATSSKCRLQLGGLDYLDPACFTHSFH

T3: monkey PRLR on HEK293/mfPRLR cells (Macaca fascicularis, UniProt A0A2K5WXK1)
T3 construct: HA; expressed in transfected cells; host or cells: HEK293
T3 sequence (A0A2K5WXK1 25-619): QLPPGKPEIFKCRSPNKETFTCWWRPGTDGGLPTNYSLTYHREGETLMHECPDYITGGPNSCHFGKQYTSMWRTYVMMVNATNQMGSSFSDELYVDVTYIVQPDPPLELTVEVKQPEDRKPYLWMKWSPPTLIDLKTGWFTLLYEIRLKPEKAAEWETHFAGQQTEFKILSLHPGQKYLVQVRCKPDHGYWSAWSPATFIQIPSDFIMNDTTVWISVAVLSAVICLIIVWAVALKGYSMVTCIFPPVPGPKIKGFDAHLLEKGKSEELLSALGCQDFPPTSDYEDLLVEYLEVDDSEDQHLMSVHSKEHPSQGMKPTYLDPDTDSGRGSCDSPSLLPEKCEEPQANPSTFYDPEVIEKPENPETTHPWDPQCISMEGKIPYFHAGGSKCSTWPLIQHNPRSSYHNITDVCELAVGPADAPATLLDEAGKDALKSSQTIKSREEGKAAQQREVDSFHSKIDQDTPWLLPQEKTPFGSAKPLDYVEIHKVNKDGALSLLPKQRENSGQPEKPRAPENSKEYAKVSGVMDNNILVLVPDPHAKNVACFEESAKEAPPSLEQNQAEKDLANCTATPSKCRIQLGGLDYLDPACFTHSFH

T4: native PRLR expressing T47D cells (Homo sapiens, UniProt P16471)
T4 construct: a native PRLR expressing cell line (T47D); endogenous in cells; host or cells: T47D
T4 sequence (P16471 25-622): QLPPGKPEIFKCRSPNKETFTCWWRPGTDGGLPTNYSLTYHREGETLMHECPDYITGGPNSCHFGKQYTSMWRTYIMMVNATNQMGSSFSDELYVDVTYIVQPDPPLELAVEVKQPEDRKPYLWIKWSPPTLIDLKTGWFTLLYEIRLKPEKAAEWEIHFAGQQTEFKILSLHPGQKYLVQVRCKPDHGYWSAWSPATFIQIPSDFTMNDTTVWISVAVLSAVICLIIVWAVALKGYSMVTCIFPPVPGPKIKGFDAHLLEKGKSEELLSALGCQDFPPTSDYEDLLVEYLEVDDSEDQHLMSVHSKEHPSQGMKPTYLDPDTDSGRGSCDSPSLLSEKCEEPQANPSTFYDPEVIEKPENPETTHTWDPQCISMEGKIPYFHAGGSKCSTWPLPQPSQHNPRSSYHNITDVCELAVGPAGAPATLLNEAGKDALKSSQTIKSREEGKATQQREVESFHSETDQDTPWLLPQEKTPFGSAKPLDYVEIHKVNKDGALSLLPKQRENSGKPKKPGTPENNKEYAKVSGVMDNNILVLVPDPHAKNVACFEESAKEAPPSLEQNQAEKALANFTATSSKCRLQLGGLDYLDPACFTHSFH

B1: H1H6781P: fully human anti-PRLR antibody, human IgG1 Fc; HCVR/LCVR SEQ ID NOs 50/58 (antibody, V domains shown)
VH: EVQLVESGGDLVQPGESLRLSCTASGFTFNSYEMNWVRQAPGKGLEWVSYISSSGGTKYYVDSVKGRFTISRDNAKKSLYLQMNSLRADDTALYYCARLNGVDVFDIWGQGTMVTVSS
VL: DIQMTQSPSSLSASVGDRVTITCRASQDIFNYLAWFQQKPGKVPELLISAASTLQSGVPSRFSGSGSGTYFTLTISSLQPEDIATYYCQRYNSAPLTFGGGTKVEIK
B2: H1H6785P: fully human anti-PRLR antibody, human IgG1 Fc; HCVR/LCVR SEQ ID NOs 98/106 (antibody, V domains shown)
VH: EVQLVESGGGLVQPGGSLRLSCAASGFTFSSYEMNWVRQAPGKGLEWISYISSRGGTIYYADSIKGRFTIYRDNARNSLYLQMNSLRAEDTAIYYCARLSGVDIFDIWGQGTMVTVSS
VL: DIQMTQSPSSLSASVGDRVTITCRASQGISNYLAWYQQKPGKVPKLLIYFASTLQSGVPSRFSGGGSGTDFTLTISSLQPEDVATYYCQRYNSAPLTFGGGTKVEIK
B3: H1H6976N: anti-PRLR antibody, human IgG1 Fc form of H2M6976N of Table 1; HCVR/LCVR SEQ ID NOs 386/394 (antibody, V domains shown)
VH: EVQLLESGGGFVQPGGSLRLSCAASGFTFSSYAMSWVRQAPGKGLEWVSIISSNGRYTYYADSVKGRFTISRDNSKNTLYLQMNSLRAEDTAVYYCATVTGDWFDPWGQGTLVTVSS
VL: DIQLTQSPSFLSASVGDRVTITCWASQDIDISLAWYQQKPGKAPKLLIYAASTLQSGVPSKFSGSGSGTDFTLTISSLQPEDFSTYYCQQLNSYPITFGQGTRLDIK
modifications: human IgG1 Fc
B4: H1H6762P: fully human anti-PRLR antibody, human IgG1 Fc; HCVR/LCVR SEQ ID NOs 2/10 (antibody, V domains shown)
VH: QVQLVESGGGVVQPGRSLRLSCAASGFTFSHYGMVWVRQPPGKGLEWVALISFDGTTKYYADSVKGRFTISRDNSKNTLYLQMNSLRAEDTAVYFCVGAIAAAAFDLWGRGTLVTVSS
VL: EIVMTQSPATLSVSPGERATLSCRASQSVSSDLAWYQQKPGQAPRLLIYSASARATGIPARFTGSGSGTDFTLTISSLQSEDFAVYYCQQYNNWPMYTFGQGTKLEIK

Experiments:
[1] = target: T1, mouse PRLR on HEK293/mPRLR cells; test: FACS cell surface binding
Description: (§1) The ability of anti-PRLR antibodies to selectively bind PRLR expressing cell lines was next determined. Human, monkey Macaca fascicularis, and mouse PRLR constructs with an HA tag were stably introduced into HEK293 cells via Lipofectamine 2000-mediated transfection methodology. Transfectants (HEK293/hPRLR, HEK293/mfPRLR and HEK293/mPRLR) were selected for at least 2 weeks in complete growth media plus G418.
(§2) Cell surface expression of PRLR on 293/hPRLR cells was assessed via FACS analysis. Briefly, 1×10^5 cells were incubated with 10 μg/ml of Control antibody I, or an isotype control for 30 min on ice in antibody dilution buffer. Following two washes with antibody dilution buffer, cells were incubated with 10 μg/ml of PE conjugated anti-human secondary antibodies for 30 min on ice. Following two additional washes, samples were run on a Hypercyt® cytometer and analyzed in ForeCyt™ (IntelliCyt, Albuquerque, N. Mex.). The mean fluorescence intensities (MFI) were expressed as fold change above isotype control levels (background). FACS binding confirmed that Control I selectively bound to 293/hPRLR expressing cells with MFIs that were 30 fold above background (isotype ctrl) levels and less than 2 fold binding on parental cells.
(§3) Next, the anti-PRLR antibodies were tested via FACS for selective binding to the engineered overexpressing PRLR HEK293 cell lines, as well as to non-expressing HEK293 cells and a native PRLR expressing cell line (T47D).

[2] = target: T2, human PRLR on HEK293/hPRLR cells; test: FACS cell surface binding
Description: as §1, §2, §3

[3] = target: T3, monkey PRLR on HEK293/mfPRLR cells; test: FACS cell surface binding
Description: as §1, §2, §3

[4] = target: T4, native PRLR expressing T47D cells; test: FACS cell surface binding
Description: as §2, §3

[5] = tested on: Macaca fascicularis PRLR (mfPRLR.mmh; SEQ ID NO:403); test: Surface plasmon resonance (Biacore T200), antibody-capture format; type: binding; settings: analyte mfPRLR.mmh
Description: (§4) Antibodies, expressed as human IgG1 Fc (i.e., “H1H” designations), were captured onto an anti-human Fc sensor surface (mAb-capture format), and soluble monomeric (hPRLR.mmh; SEQ ID NO:401, or Macaca fascicularis (mf) PRLR.mmh; SEQ ID NO:403) or dimeric (hPRLR.mFc; SEQ ID NO:402) PRLR protein was injected over the sensor surface. Measurements were conducted on a T200 Biacore instrument. Kinetic association (ka) and dissociation (kd) rate constants were determined by processing and fitting the data to a 1:1 binding model using Scrubber 2.0 curve fitting software.

[6] = target: T5, dimeric human PRLR (hPRLR.mFc; SEQ ID NO:402) (Homo sapiens, UniProt P16471); test: as above; type: binding; settings: analyte hPRLR.mFc
T5 construct: dimeric (hPRLR.mFc)
Description: as §4

[7] = target: T6, monomeric human PRLR (hPRLR.mmh; SEQ ID NO:401) (Homo sapiens, UniProt P16471); test: as above; type: binding; settings: analyte hPRLR.mmh
T6 construct: soluble monomeric (hPRLR.mmh); mmh (myc-myc-hexahistidine) (C)
Description: as §4

HEK293 parental cells = test: FACS cell surface binding; design: species or system human
Description: as §1, §2, §3

Macaca fascicularis PRLR (mfPRLR.mmh; SEQ ID NO:403), sequence (as listed by the source): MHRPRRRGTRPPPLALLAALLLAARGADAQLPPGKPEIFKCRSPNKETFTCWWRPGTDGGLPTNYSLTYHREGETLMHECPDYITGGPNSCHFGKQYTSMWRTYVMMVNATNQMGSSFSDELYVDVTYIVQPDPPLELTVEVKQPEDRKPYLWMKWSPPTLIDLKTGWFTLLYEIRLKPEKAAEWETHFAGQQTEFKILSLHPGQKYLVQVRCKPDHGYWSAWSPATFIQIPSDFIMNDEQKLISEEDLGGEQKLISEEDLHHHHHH
T5 sequence (P16471 with tags, fused parts or gaps): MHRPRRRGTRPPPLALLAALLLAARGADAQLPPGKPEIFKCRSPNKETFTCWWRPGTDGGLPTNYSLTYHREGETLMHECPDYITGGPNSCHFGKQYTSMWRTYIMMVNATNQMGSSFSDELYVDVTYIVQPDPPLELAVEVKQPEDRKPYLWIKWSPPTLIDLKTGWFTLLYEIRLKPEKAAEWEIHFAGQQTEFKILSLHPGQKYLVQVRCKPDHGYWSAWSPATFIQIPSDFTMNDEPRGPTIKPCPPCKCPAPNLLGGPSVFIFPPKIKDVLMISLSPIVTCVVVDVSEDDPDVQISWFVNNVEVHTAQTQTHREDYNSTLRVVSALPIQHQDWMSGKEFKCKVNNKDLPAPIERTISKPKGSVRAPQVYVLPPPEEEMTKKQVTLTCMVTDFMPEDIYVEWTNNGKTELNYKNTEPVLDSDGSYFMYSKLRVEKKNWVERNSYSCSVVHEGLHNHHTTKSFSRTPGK
T6 sequence (P16471 with tags, fused parts or gaps): as the sequence (as listed by the source) above, with V105I, T139A, M154I, T187I, I236T counted along it

Row | Molecule | FACS Cell Binding [1] [Fold Above Background] | FACS Cell Binding [2] [Fold Above Background] | FACS Cell Binding [3] [Fold Above Background] | FACS Cell Binding [4] [Fold Above Background] | ka ([5]; 25° C.) [M/s] | kd ([5]; 25° C.) [s⁻¹] | ka ([5]; 37° C.) [M/s] | kd ([5]; 37° C.) [s⁻¹] | ka ([6]; 25° C.) [M/s] | kd ([6]; 25° C.) [s⁻¹] | ka ([6]; 37° C.) [M/s] | kd ([6]; 37° C.) [s⁻¹] | ka ([7]; 25° C.) [M/s] | kd ([7]; 25° C.) [s⁻¹] | ka ([7]; 37° C.) [M/s] | kd ([7]; 37° C.) [s⁻¹] | FACS Cell Binding (HEK293 parental cells) [Fold Above Background]
1 | B1 | 1 | 37 | 26 | 40 | 143000 | 0.000141 | 247000 | 0.000267 | 257000 | 6.05e-05 | 436000 | 9.84e-05 | 208000 | 0.000127 | 339000 | 0.000309 | 1
2 | B2 | 2 | 37 | 26 | 40 | 227000 | 0.000167 | 297000 | 0.00045 | 263000 | 6.07e-05 | 456000 | 0.000117 | 301000 | 0.000171 | 426000 | 0.000484 | 1
3 | B3 | 1 | 8 | 29 | 37 | 466000 | 0.000814 | 603000 | 0.00316 | 1.12e+06 | 0.000101 | 1.37e+06 | 0.00014 | 544000 | 0.000864 | 777000 | 0.00314 | 1
4 | B4 | 2 | 36 | 26 | 38 | 408000 | 0.000208 | 679000 | 0.000558 | 651000 | 6.45e-05 | 801000 | 0.000103 | 692000 | 0.000179 | 948000 | 0.000455 | 1
